Legend:
[1] = target: T1, mouse EphA4-Fc (R&D Systems) (mouse, UniProt Q03137 20-547); assay: SPR
[2] = target: T2, human EphA4-Fc (R&D Systems) (human, UniProt P54764 20-547); assay: SPR
[3] = target: T3, EphA4 ligand-binding domain (human, amino acids 22-203) (human, UniProt P54764 22-203, biotin on primary amines (EZ link NHS biotin) in the AlphaScreen assays only); assay: SPR
[4] = target: T1, mouse EphA4-Fc (R&D Systems); assay: SPR; remark: listed apart in the source
[5] = target: T2, human EphA4-Fc (R&D Systems); assay: SPR; kd2
[6] = target: T3, EphA4 ligand-binding domain (human, …); assay: SPR; kd2
[7] = target: T2, human EphA4-Fc (R&D Systems); assay: SPR; kd1
[8] = target: T3, EphA4 ligand-binding domain (human, …); assay: SPR; kd1
[9] = target: T2, human EphA4-Fc (R&D Systems); assay: SPR; remark: listed apart in the source
[10] = target: T1, mouse EphA4-Fc (R&D Systems); assay: SPR; kd2
[11] = target: T1, mouse EphA4-Fc (R&D Systems); assay: SPR; kd1

T3 sequence (P54764 22-203): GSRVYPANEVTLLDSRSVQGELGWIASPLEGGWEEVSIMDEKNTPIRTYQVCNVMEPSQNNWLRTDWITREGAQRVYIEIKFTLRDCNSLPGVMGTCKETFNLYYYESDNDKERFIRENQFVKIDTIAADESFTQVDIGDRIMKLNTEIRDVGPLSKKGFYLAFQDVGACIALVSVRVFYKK
T1 sequence (Q03137 20-547): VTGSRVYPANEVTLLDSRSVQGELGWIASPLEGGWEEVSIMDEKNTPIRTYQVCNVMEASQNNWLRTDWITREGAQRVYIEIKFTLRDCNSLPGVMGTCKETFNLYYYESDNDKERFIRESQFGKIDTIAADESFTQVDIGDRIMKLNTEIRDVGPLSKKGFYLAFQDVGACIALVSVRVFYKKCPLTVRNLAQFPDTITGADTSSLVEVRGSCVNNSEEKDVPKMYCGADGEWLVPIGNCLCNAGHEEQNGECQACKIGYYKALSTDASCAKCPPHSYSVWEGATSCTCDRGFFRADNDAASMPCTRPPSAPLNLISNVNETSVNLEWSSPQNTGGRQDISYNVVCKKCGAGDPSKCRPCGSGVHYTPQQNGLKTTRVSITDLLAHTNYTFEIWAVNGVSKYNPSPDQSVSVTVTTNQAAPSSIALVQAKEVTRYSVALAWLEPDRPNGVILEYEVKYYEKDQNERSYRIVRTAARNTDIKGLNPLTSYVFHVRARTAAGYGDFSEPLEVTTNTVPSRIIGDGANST
T2 sequence (P54764 20-547): as the sequence (Q03137 20-547) above, with A59P, S121N, G124V, Q250R, N251S, S270T, R378K, S406N counted along it

Row | Binder | koff [1] | Kd [2] | Kd [3] | Kd [4] | koff [5] | koff [6] | koff [7] | koff [8] | koff [9] | koff [10] | koff [11]
1 | Nb 50 (VHH, biotin on primary amines (EZ link NHS biotin) in the Eph receptor selectivity AlphaScreen only) VHH: QVQLQESGGGLVQAGGSLRLSCAASGRTFNSYAEAWFRQAPGKEREMIAAVTKAGTTNYANPVKGRFTISRDDAKNMVYLQMNNLKPEDSAVYYCNAISPLWDEYDFWGPGTQVTVSS | 0.114 s⁻¹ | 64.2 nM | 87.3 nM | 104 nM | 0.0022 s⁻¹ | 0.00062 s⁻¹ | 0.168 s⁻¹ | 0.192 s⁻¹ | – | – | –
2 | Nb 53 (VHH, biotin on primary amines (EZ link NHS biotin) in the Eph receptor selectivity AlphaScreen only) VHH: QVQLQESGGGVVQAGGSLRLSCAASGRAFSSYAMGWFRQAPGTKREMIAAVTRAGTTNYANPVKGRFTISRDDAKNMVYLQMNNLKPEDSAVYYCNAISPLWDEYDFWGPGTQVTVSS | 0.0244 s⁻¹ | 22.6 nM | 45.7 nM | 22.8 nM | – | 0.00213 s⁻¹ | – | 0.0594 s⁻¹ | 0.0156 s⁻¹ | – | –
3 | Nb 31 (VHH, biotin on primary amines (EZ link NHS biotin) in the Eph receptor selectivity AlphaScreen only) VHH: QVQLQESGGGLVQAGGSLRLSCAASGFASDAYAIGWFRQAPGTKREMIAAVTKAGATNYANPVKGRFTISRDDAKNMVYLQMNNLKPEDSAVYYCNAISPLWDEYDFWGPGTQVTVSS | – | 175 nM | 293 nM | 258 nM | 0.0105 s⁻¹ | 0.00676 s⁻¹ | 0.2 s⁻¹ | 0.155 s⁻¹ | – | 0.0115 s⁻¹ | 0.151 s⁻¹
4 | Nb 57 (VHH, biotin on primary amines (EZ link NHS biotin) in the Eph receptor selectivity AlphaScreen only) VHH: QVQLQESGGGLVQPGGSLRLSCAASGFTFSSYYMYWVRQAPGKGLEWVSTINTGGGSTNYADSVKGRFIISRDNAKNTVYLQMNSLKPEDTAVYYCNAFAAGWGPDYWGQGTQVTVSS | 0.288 s⁻¹ | 38.3 nM | 57.5 nM | 37.8 nM | – | 0.00133 s⁻¹ | – | 0.257 s⁻¹ | 0.229 s⁻¹ | – | –
5 | Nb 39 (VHH, biotin on primary amines (EZ link NHS biotin) in the Eph receptor selectivity AlphaScreen only) VHH: QVQLQESGGGLVQPGGSLKLSCAASGFTFSTYAMSWVRQAPGKGLEWVSRINSGGGYTWHADSVKGRFTISRDNARNTVYLQMNNLKPEDTAVYYCTNLNTGWRPEYWGQGTQVTVSS | 0.0158 s⁻¹ | 30.1 nM | 56.6 nM | 23.6 nM | – | 0.00186 s⁻¹ | – | 0.0607 s⁻¹ | 0.0291 s⁻¹ | – | –
6 | Nb 22 (VHH, biotin on primary amines (EZ link NHS biotin) in the Eph receptor selectivity AlphaScreen only) VHH: QVQLQESGGGPVRAGESLRLSCTASGRAFSTYTMGWFRQAPGKERELVAVITPGGNTNYADSVKGRFTISRDDAKNTVYLQMNSLKPVDTAVYYCHVVLAVVGTGNEYDVWGQGTQVTVSS | 0.023 s⁻¹ | 47.1 nM | 54.1 nM | 104 nM | – | 0.00255 s⁻¹ | – | 0.0143 s⁻¹ | 0.0148 s⁻¹ | – | –

The next lines start with the values.

Row | koff [1] | Kd [2] | Kd [3] | Kd [4] | koff [5] | koff [6] | koff [7] | koff [8] | koff [9] | koff [10] | koff [11] | Binder
7 | 0.135 s⁻¹ | 852 nM | 507 nM | 1140 nM | – | 0.0289 s⁻¹ | – | 0.108 s⁻¹ | 0.091 s⁻¹ | – | – | Nb 19 (VHH) VHH: QVQLQESGGGLVQPGGSLRLSCAATGRNFNAYSIAWFRQAPGKEREFVASINWSGSNTYYAVAVKGRFTTSRDNAKNTVYLQMNSLKPEDTAVYYCNAFAAGWGPDYWGQGTQVTVSS
8 | – | 39.6 nM | 37 nM | 27.4 nM | – | 0.00018 s⁻¹ | – | 0.115 s⁻¹ | 0.0488 s⁻¹ | – | – | Nb 60 (VHH, biotin on primary amines (EZ link NHS biotin) in the Eph receptor selectivity AlphaScreen only) VHH: QVQLQESGGGLVQPGGSLRLSCAASGFTFSRYWIYWVRQAPGKQRELVAAITRNGVTNYADSVKGRFTISTDDNKNTVYLQMNSLKSEDTAVYYCNAWGFLLGDIEDYWGQGTQVTVSS
9 | – | 18000 nM | – | 26900 nM | 0.0121 s⁻¹ | – | 0.168 s⁻¹ | – | – | 0.0226 s⁻¹ | 0.345 s⁻¹ | Nb 34 (VHH) VHH: QVQLQESGGGLVQAGGSLRLSCAASGFTFSSYAMSWVRQAPGKGLEWVSGINTGGGSTYYADSVKGRFTISRDNAKNTLYLQMNSLKSEDTAVYYCVPRVGVLEGLTSFGSWGQGTQVTVSS
